Measurements: patent publication US20200079833A1 (AstraZeneca / MedImmune, published 2020)
Starred links: 1 amine or outer side, 2 acyl side, 3 side chain; linkers in the order of their positions; H or OH if unused. Non-standard residues stand in square brackets, D forms with d. Groups on a side chain read outwards from the residue. Primed or numbered codes have the meaning given here. No end group written: not given here. *: point of attachment. γGlu = O=C(O)[C@H](CCC(=O)[*:2])N[*:1]; Stearoyl = CCCCCCCCCCCCCCCCCC(=O)*; Palmitoyl = CCCCCCCCCCCCCCCC(=O)*; αMeF = C[C@](N)(Cc1ccccc1)C(=O)O; αMeK = C[C@](N)(CCCCN)C(=O)O; αMeS = C[C@](N)(CO)C(=O)O; PEG2′ = not defined here; Aib = CC(C)(N)C(=O)O

T1: glucose-dependent insulinotropic peptide (gastric inhibitory polypeptide) receptor (GIPR) (human, UniProt P48546 22-466)
T1 sequence (looked up): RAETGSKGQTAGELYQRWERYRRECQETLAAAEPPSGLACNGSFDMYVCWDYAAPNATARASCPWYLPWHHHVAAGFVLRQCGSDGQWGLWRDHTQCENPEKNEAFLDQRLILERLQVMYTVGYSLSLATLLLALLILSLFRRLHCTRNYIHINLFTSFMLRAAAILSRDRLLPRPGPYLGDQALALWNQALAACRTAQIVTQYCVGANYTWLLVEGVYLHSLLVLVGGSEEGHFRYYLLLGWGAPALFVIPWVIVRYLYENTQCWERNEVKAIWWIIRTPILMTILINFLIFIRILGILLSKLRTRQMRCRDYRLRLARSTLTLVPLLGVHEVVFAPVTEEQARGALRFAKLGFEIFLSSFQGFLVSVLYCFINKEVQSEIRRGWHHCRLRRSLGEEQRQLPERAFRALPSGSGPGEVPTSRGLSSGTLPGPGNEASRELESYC


How the values were obtained:
Assay in all cases: cell-based or functional assay
[1] = target: glucagon receptor (GCGR) (human, UniProt P47871 26-477)
[2] = target: GLP-1 receptor (GLP-1R) (human, UniProt P43220 24-463)
[3] = target: T1, glucose-dependent insulinotropic …

glucagon receptor (GCGR), sequence (P47871 26-477): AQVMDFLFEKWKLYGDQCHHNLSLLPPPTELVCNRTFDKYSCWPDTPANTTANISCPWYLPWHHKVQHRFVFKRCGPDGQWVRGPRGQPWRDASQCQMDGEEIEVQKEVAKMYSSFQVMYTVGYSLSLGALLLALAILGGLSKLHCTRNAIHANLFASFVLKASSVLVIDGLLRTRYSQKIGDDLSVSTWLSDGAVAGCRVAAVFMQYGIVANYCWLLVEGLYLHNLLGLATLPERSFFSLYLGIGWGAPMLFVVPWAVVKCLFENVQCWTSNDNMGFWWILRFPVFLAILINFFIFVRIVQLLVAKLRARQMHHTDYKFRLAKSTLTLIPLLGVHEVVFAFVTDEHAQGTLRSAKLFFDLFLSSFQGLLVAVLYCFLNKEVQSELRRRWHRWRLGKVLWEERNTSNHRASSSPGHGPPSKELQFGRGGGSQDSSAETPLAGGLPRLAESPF

Row | Binder | cAMP Primary assay EC50 Gluc-R [1] [nM] | cAMP Primary assay EC50 Gluc-R (2nd) [1] [nM] | cAMP Mean pM GLP-1R [2] [pM] | cAMP Primary assay EC50 GLP-1R n1 [2] [nM] | cAMP Primary assay EC50 GLP-1R n2 [2] [nM] | cAMP Primary assay EC50 GIP-R [3] [nM] | cAMP Primary assay EC50 GIP-R (2nd) [3] [nM]
1 | H[Aib]EGS[αMeF]TSDV[αMeS]S[αMeF]LEGEAK([PEG2′-PEG2′-γGlu-Stearoyl])[αMeK]E[αMeF]IA[αMeF]VV[αMeK]GG-NH2 [SEQ ID NO 110] | 25 | 25 | 62 | 0.06 | 0.0639 | 25 | 25
2 | H[Aib]EGS[αMeF]TSDV[αMeS]S[αMeF]LEGEAA[αMeK]E[αMeF]IA[αMeF]VV[αMeK]GK([PEG2′-PEG2′-γGlu-Stearoyl])-NH2 [SEQ ID NO 99] | 25 | 24.9 | 54 | 0.058 | 0.0493 | 25 | 24.9
3 | H[Aib]EGS[αMeF]TSDV[αMeS]S[αMeF]LEGEAA[αMeK]K([PEG2′-PEG2′-γGlu-Stearoyl])[αMeF]IA[αMeF]VV[αMeK]GG-NH2 [SEQ ID NO 108] | 25 | 25.4 | 4 | 0.0038 | 0.00346 | 25 | 25.4
4 | H[Aib]EGS[αMeF]TSDV[αMeS]S[αMeF]LEGEAA[αMeK]E[αMeF]IA[αMeF]VK([PEG2′-PEG2′-γGlu-Stearoyl])[αMeK]GG-NH2 [SEQ ID NO 102] | 25 | 25.2 | 22 | 0.024 | 0.0206 | 25 | 25.2
5 | H[Aib]EGS[αMeF]TSDV[αMeS]S[αMeF]LEGEAA[αMeK]E[αMeF]IA[αMeF]VVK([PEG2′-PEG2′-γGlu-Stearoyl])GG-NH2 [SEQ ID NO 101] | 25 | 25.4 | 55 | 0.058 | 0.0512 | 25 | 25.4
6 | H[Aib]EGS[αMeF]TSDV[αMeS]S[αMeF]LEGEAA[αMeK]E[αMeF]K([PEG2′-PEG2′-γGlu-Stearoyl])A[αMeF]VV[αMeK]GG-NH2 [SEQ ID NO 106] | 25 | 25.3 | 6140 | 6.5 | 5.79 | 25 | 25.3
7 | HK([γGlu-Palmitoyl])EGS[αMeF]TSDV[αMeS]S[αMeF]LEGEAA[αMeK]E[αMeF]IA[αMeF]VV[αMeK]GG-NH2 [SEQ ID NO 98] | 28 | 28 | 27500 | 28 | 28 | 28 | 28
8 | H[Aib]EGS[αMeF]TSDV[αMeS]S[αMeF]LEK([PEG2′-PEG2′-γGlu-Stearoyl])EAA[αMeK]E[αMeF]IA[αMeF]VV[αMeK]GG-NH2 [SEQ ID NO 113] | 25 | 24.9 | 18 | 0.018 | 0.0174 | 25 | 24.9
9 | H[Aib]EGS[αMeF]TSDV[αMeS]S[αMeF]LEGK([PEG2′-PEG2′-γGlu-Stearoyl])AA[αMeK]E[αMeF]IA[αMeF]VV[αMeK]GG-NH2 [SEQ ID NO 112] | 25 | 25.4 | 6 | 0.0061 | 0.00507 | 25 | 25.4
10 | H[Aib]EGS[αMeF]TSDV[αMeS]S[αMeF]LEGEAA[αMeK]E[αMeF]IA[αMeF]VV[αMeK]K([PEG2′-PEG2′-γGlu-Stearoyl])G-NH2 [SEQ ID NO 100] | 25 | 24.9 | 15 | 0.016 | 0.0146 | 25 | 24.9
11 | H[Aib]EGS[αMeF]TSDV[αMeS]S[αMeF]LEGEAA[αMeK]E[αMeF]IK([PEG2′-PEG2′-γGlu-Stearoyl])[αMeF]VV[αMeK]GG-NH2 [SEQ ID NO 105] | 25 | 25 | 18 | 0.021 | 0.0148 | 25 | 25
12 | H[Aib]EGS[αMeF]TSDV[αMeS]S[αMeF]LEGEAA[αMeK]E[αMeF]IAK([PEG2′-PEG2′-γGlu-Stearoyl])VV[αMeK]GG-NH2 [SEQ ID NO 104] | 26 | 25.6 | 5 | 0.0059 | 0.00511 | 26 | 25.6
13 | H[Aib]K([γGlu-Palmitoyl])GS[αMeF]TSDV[αMeS]S[αMeF]LEGEAA[αMeK]E[αMeF]IA[αMeF]VV[αMeK]GG-NH2 (N-terminus assumed; SMILES CCCCCCCCCCCCCCCC(=O)N[C@@H](CCC(=O)NCCCC[C@H](NC(=O)C(C)(C)NC(=O)[C@@H](N)Cc1c[nH]cn1)C(=O)NCC(=O)N[C@@H](CO)C(=O)N[C@@](C)(Cc1ccccc1)C(=O)N[C@H](C(=O)N[C@@H](CO)C(=O)N[C@@H](CC(=O)O)C(=O)N[C@H](C(=O)N[C@@](C)(CO)C(=O)N[C@@H](CO)C(=O)N[C@@](C)(Cc1ccccc1)C(=O)N[C@@H](CC(C)C)C(=O)N[C@@H](CCC(=O)O)C(=O)NCC(=O)N[C@@H](CCC(=O)O)C(=O)N[C@@H](C)C(=O)N[C@@H](C)C(=O)N[C@@](C)(CCCCN)C(=O)N[C@@H](CCC(=O)O)C(=O)N[C@@](C)(Cc1ccccc1)C(=O)N[C@H](C(=O)N[C@@H](C)C(=O)N[C@@](C)(Cc1ccccc1)C(=O)N[C@H](C(=O)N[C@H](C(=O)N[C@@](C)(CCCCN)C(=O)NCC(=O)NCC(N)=O)C(C)C)C(C)C)[C@@H](C)CC)C(C)C)[C@@H](C)O)C(=O)O) [SEQ ID NO 97] | 28 | 28 | 27800 | 28 | 28 | 28 | 28
14 | H[Aib]EGS[αMeF]TSDV[αMeS]S[αMeF]LEGEAAK([PEG2′-PEG2′-γGlu-Palmitoyl])E[αMeF]IA[αMeF]VV[αMeK]GG-NH2 [SEQ ID NO 109] | 26 | 25.6 | 34 | 0.034 | 0.0346 | 26 | 25.6
15 | H[Aib]EGS[αMeF]TSDV[αMeS]S[αMeF]LK([PEG2′-PEG2′-γGlu-Stearoyl])GEAA[αMeK]E[αMeF]IA[αMeF]VV[αMeK]GG-NH2 [SEQ ID NO 114] | 25 | 25.4 | 503 | 0.55 | 0.458 | 25 | 25.4
16 | H[Aib]EGS[αMeF]TSDV[αMeS]S[αMeF]LEGEAA[αMeK]E[αMeF]IA[αMeF]K([PEG2′-PEG2′-γGlu-Stearoyl])V[αMeK]GG-NH2 [SEQ ID NO 103] | 25 | 25.2 | 5 | 0.0047 | 0.00456 | 25 | 25.2
17 | H[Aib]EGS[αMeF]TSDV[αMeS]S[αMeF]LEGEK([PEG2′-PEG2′-γGlu-Stearoyl])A[αMeK]E[αMeF]IA[αMeF]VV[αMeK]GG-NH2 [SEQ ID NO 111] | 25 | 25 | 17 | 0.018 | 0.0164 | 25 | 25
